Laboratory results published in patent US20110177501, “BIOSENSOR FOR DETECTION AND VISUALISATION OF SINGLE-STRANDED DNA” (MEDICAL RESEARCH COUNCIL, published 2011).

Columns and labels:
[1] = biological target: T1, IDCC-E. coli SSB (G26C) (Escherichia coli, UniProt P0AGE0 SEQ:1-177, G26C (mature protein numbering as printed)); experiment: competition; ratio Kd(IDCC-SSB)/Kd(unlabeled SSB); 200 mM NaCl, 30 C; settings: tags: IDCC diethylaminocoumarin label on Cys26; chain copies: 4 (stated, tetramer)
Description: (§1) In order to obtain a molecule suitable for solution measurements, a suitably large fluorescence increase on binding DNA, together with reasonably bright fluorescence quantum yield are the main criteria. Fluorescence spectra of 250 nM labeled E. coli SSB (tetramer concentration) were measured at 30° C. in 25 mM Tris.HCl pH 7.5, 200 mM NaCl, 1 mM DTT, and 5 μM bovine serum albumin.
(§2) In order to determine the effect of labeling on the affinity of E. coli SSB for ssDNA, dT₇₀ was titrated into a mixture of unlabeled E. coli SSB and IDCC-E. coli SSB (FIG. 4). It is apparent that low concentrations of DNA bind mainly to the unlabeled E. coli SSB, as there is only a small increase in fluorescence. This implies that the unlabeled protein has the higher affinity.

[2] = biological target: unlabeled E. coli SSB (S92C) (Escherichia coli, UniProt P0AGE0 SEQ:1-177, S92C (mature protein numbering as printed)); experiment: competition; binds dT70 28-fold more tightly than IDCC-SSB; settings: chain copies: 4 (stated, tetramer)
Description: as §1, §2

[3] = biological target: 6-IATR-E. coli SSB (W88C) (Escherichia coli, UniProt P0AGE0 SEQ:1-177, W88C (mature protein numbering as printed)); experiment: tight binding, saturates at 1:1 dT70:tetramer; 200 mM NaCl; settings: tags: 6-IATR rhodamine label on Cys88; chain copies: 4 (stated, tetramer)
[4] = biological target: T1, IDCC-E. coli SSB (G26C); experiment: 25 mM Tris pH 7.5, 200 mM NaCl, 30 C; settings: tags: IDCC diethylaminocoumarin label on Cys26; chain copies: 4 (stated, tetramer)
Description: as §1
(§3) Excitation was at the appropriate wavelength for the fluorophore and the emission intensities at the maximum were measured in the absence and presence of saturating dT₇₀. The two coumarins, IDCC and MDCC gave the largest fluorescence enhancement with G26C and this mutant protein labeled with IDCC, IDCC-E. coli SSB, was chosen for further study for two reasons. Firstly it gave consistently a larger increase than MDCC. […] In the case of MDCC, reaction of its maleimide with a protein cysteine causes the production of diastereoisomers. […] In contrast, reaction of IDCC with a thiol should produce only a single molecular species.

[5] = biological target: 6-IATR-E. coli SSB (S92C) (Escherichia coli, UniProt P0AGE0 SEQ:1-177, S92C); experiment: 25 mM Tris pH 7.5, 200 mM NaCl, 30 C; settings: tags: 6-IATR label on Cys92; chain copies: 4 (stated, tetramer)
Description: as §1, §3

[6] = biological target: Alexa Fluor 546-E. coli SSB (G26C) (Escherichia coli, UniProt P0AGE0 SEQ:1-177, G26C); experiment: 25 mM Tris pH 7.5, 200 mM NaCl, 30 C; settings: tags: Alexa Fluor 546 label on Cys26; chain copies: 4 (stated, tetramer)
Description: as §1, §3

[7] = biological target: MDCC-E. coli SSB (G26C) (Escherichia coli, UniProt P0AGE0 SEQ:1-177, G26C); experiment: 25 mM Tris pH 7.5, 200 mM NaCl, 30 C; settings: tags: MDCC label on Cys26; chain copies: 4 (stated, tetramer)
Description: as §1, §3

[8] = biological target: IDCC-E. coli SSB (S92C) (Escherichia coli, UniProt P0AGE0 SEQ:1-177, S92C); experiment: 25 mM Tris pH 7.5, 200 mM NaCl, 30 C; settings: tags: IDCC label on Cys92; chain copies: 4 (stated, tetramer)
Description: as §1, §3

[9] = biological target: MDCC-E. coli SSB (S92C) (Escherichia coli, UniProt P0AGE0 SEQ:1-177, S92C); experiment: 25 mM Tris pH 7.5, 200 mM NaCl, 30 C; settings: tags: MDCC label on Cys92; chain copies: 4 (stated, tetramer)
Description: as §1, §3

[10] = biological target: Alexa Fluor 488-E. coli SSB (G26C) (Escherichia coli, UniProt P0AGE0 SEQ:1-177, G26C); experiment: 25 mM Tris pH 7.5, 200 mM NaCl, 30 C; settings: tags: Alexa Fluor 488 label on Cys26; chain copies: 4 (stated, tetramer)
Description: as §1, §3

[11] = biological target: Alexa Fluor 488-E. coli SSB (S92C) (Escherichia coli, UniProt P0AGE0 SEQ:1-177, S92C); experiment: 25 mM Tris pH 7.5, 200 mM NaCl, 30 C; settings: tags: Alexa Fluor 488 label on Cys92; chain copies: 4 (stated, tetramer)
Description: as §1, §3

[12] = biological target: 6-IATR-E. coli SSB (G26C) (Escherichia coli, UniProt P0AGE0 SEQ:1-177, G26C); experiment: 25 mM Tris pH 7.5, 200 mM NaCl, 30 C; settings: tags: 6-IATR label on Cys26; chain copies: 4 (stated, tetramer)
Description: as §1, §3

[13] = biological target: MIANS-E. coli SSB (S92C) (Escherichia coli, UniProt P0AGE0 SEQ:1-177, S92C); experiment: 25 mM Tris pH 7.5, 200 mM NaCl, 30 C; settings: tags: MIANS label on Cys92; chain copies: 4 (stated, tetramer)
Description: as §1, §3

[14] = biological target: Alexa Fluor 546-E. coli SSB (S92C) (Escherichia coli, UniProt P0AGE0 SEQ:1-177, S92C); experiment: 25 mM Tris pH 7.5, 200 mM NaCl, 30 C; settings: tags: Alexa Fluor 546 label on Cys92; chain copies: 4 (stated, tetramer)
Description: as §1, §3

B1: dT70 (ssDNA)
DNA: TTTTTTTTTTTTTTTTTTTTTTTTTTTTTTTTTTTTTTTTTTTTTTTTTTTTTTTTTTTTTTTTTTTTTT
- binding signal [1]: 28 fold Kd vs unlabeled SSB S92C
- binding result [2]: binds
- activity [3]: ~4.5 fold fluorescence (+/- DNA)
- activity [4]: 6.1 fluorescence ratio +/- dT70
- activity [5]: 1.3 fluorescence ratio +/- dT70
- activity [6]: 2.3 fluorescence ratio +/- dT70
- activity [7]: 4.9 fluorescence ratio +/- dT70
- activity [8]: 2.8 fluorescence ratio +/- dT70
- activity [9]: 2.2 fluorescence ratio +/- dT70
- activity [10]: 3.3 fluorescence ratio +/- dT70
- activity [11]: 3.1 fluorescence ratio +/- dT70
- activity [12]: 2.8 fluorescence ratio +/- dT70
- activity [13]: 0.4 fluorescence ratio +/- dT70
- activity [14]: 1.5 fluorescence ratio +/- dT70
